Reference: patent publication US12371817 (TEXAS A AND M UNIVERSITY SYSTEM, dated 2025)
Blank lines part the entries; values can stand above or below the binder they belong to. Numbered stars: 1 amine (or outer) side, 2 acyl side, 3 side chain; on linkers, the order of the positions; unused ones are H or OH. Square brackets hold non-standard residues; d marks the D form. Ends that are not written are not given here. * marks the point of attachment. thBuK = N^ε-thiobutyryl-lysine, CCCC(=S)NCCCC[C@H](N[*:1])C(=O)[*:2]; Crotonyl(E) = C/C=C/C(=O)*; Abu = CC[C@H](N)C(=O)O

How the values were obtained:
[1] = molecular target: T1, recombinant human sirtuin 2 (His6-SIRT2) (human, UniProt Q8IXJ6 1-389); assay: deacetylase inhibition
T1 chain: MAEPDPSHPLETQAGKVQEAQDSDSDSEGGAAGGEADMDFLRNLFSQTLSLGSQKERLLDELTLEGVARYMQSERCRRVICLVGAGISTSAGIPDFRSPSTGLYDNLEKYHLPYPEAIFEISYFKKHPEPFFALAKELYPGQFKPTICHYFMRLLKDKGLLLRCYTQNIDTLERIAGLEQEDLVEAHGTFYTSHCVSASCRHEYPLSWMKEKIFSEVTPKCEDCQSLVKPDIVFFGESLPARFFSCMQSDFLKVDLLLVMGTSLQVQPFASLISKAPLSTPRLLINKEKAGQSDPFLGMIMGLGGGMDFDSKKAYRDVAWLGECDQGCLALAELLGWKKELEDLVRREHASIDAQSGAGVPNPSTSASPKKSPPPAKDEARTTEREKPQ

[2] = molecular target: T2, ENL (UniProt Q03111 1-148, limits assumed); assay: fluorescence polarization, 5-FAM-conjugated peptide binding to ENL
T2 construct: also called ENL protein
T2 sequence (looked up): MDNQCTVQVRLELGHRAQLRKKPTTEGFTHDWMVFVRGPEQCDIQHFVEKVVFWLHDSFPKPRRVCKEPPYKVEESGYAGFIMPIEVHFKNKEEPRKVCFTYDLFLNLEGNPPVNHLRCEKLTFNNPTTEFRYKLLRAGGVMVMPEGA

[3] = molecular target: T3, human sirtuin 3 (GST-SIRT3) (human, UniProt Q9NTG7 102-399); assay: cell-based or functional assay
T3 sequence (looked up): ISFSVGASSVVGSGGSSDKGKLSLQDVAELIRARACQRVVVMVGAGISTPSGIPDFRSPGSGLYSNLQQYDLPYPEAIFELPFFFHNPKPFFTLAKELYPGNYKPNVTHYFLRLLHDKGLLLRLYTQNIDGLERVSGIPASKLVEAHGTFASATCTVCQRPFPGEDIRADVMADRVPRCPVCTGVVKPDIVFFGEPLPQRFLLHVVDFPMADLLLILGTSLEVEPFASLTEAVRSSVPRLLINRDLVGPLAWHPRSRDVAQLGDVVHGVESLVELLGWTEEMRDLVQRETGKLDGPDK

[4] = molecular target: T4, recombinant human sirtuin 2 (His6-SIRT2) (human, UniProt Q8IXJ6 1-389); assay: cell-based or functional assay
T4 sequence (looked up): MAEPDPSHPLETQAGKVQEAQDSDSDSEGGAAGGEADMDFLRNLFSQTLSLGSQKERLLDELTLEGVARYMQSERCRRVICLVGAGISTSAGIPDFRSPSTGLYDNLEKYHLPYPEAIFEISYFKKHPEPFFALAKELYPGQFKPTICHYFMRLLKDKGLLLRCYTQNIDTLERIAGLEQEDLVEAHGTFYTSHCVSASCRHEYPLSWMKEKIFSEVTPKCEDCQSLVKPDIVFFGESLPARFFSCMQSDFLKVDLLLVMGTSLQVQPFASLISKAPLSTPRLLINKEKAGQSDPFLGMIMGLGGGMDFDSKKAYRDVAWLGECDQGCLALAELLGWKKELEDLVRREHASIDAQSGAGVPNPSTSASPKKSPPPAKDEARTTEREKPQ

[5] = molecular target: T5, human sirtuin 1 (His6-SIRT1) (human, UniProt Q96EB6 1-747); assay: cell-based or functional assay
T5 sequence (looked up): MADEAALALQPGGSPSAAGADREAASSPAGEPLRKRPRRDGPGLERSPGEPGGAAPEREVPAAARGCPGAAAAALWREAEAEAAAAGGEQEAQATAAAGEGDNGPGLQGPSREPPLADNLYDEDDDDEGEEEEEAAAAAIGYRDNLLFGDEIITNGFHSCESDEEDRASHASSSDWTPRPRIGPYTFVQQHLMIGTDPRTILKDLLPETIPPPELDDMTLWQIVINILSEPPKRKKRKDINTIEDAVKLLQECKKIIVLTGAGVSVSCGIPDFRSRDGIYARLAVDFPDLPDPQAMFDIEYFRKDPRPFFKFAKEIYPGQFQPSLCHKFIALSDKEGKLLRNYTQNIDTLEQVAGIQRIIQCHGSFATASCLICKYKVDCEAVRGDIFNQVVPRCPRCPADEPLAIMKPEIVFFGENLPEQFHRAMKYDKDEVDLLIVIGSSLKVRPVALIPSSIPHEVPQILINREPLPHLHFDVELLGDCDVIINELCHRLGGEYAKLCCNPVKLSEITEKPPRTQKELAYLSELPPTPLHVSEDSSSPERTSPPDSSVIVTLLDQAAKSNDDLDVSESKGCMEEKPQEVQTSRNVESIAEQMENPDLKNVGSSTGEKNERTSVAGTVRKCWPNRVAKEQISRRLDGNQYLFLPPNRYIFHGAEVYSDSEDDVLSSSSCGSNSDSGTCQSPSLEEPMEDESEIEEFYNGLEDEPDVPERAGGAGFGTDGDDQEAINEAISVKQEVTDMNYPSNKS

B1: S2P07 (NH2-CTFXVPT-NH2), synthesized with N^ε-thiobutyryl-lysine (thBuK) in place of BuK (peptide)
peptide: H-CTF[thBuK]VPT-NH2
SMILES: CCCC(=S)NCCCC[C@H](NC(=O)[C@H](Cc1ccccc1)NC(=O)[C@@H](NC(=O)[C@@H](N)CS)[C@@H](C)O)C(=O)N[C@H](C(=O)N1CCC[C@H]1C(=O)N[C@H](C(N)=O)[C@@H](C)O)C(C)C
IC50 [1]: 101 nM

B4: S2P04-5, truncated version of S2P04 containing only the five residues of the consensus motif (peptide)
peptide: CTV[thBuK]I-NH2
modifications: N-terminus assumed
SMILES: CCCC(=S)NCCCC[C@H](NC(=O)[C@@H](NC(=O)[C@@H](NC(=O)[C@@H](N)CS)[C@@H](C)O)C(C)C)C(=O)N[C@H](C(N)=O)[C@@H](C)CC
IC50, inhibition of SIRT2 (fluorogenic sirtuin substrate assay) [4]: 136 nM

B5: S2P03 (NH2-CTVXTSL-NH2), synthesized with N^ε-thiobutyryl-lysine (thBuK) in place of BuK (peptide)
peptide: H-CTV[thBuK]TSL-NH2
SMILES: CCCC(=S)NCCCC[C@H](NC(=O)[C@@H](NC(=O)[C@@H](NC(=O)[C@@H](N)CS)[C@@H](C)O)C(C)C)C(=O)N[C@H](C(=O)N[C@@H](CO)C(=O)N[C@@H](CC(C)C)C(N)=O)[C@@H](C)O
IC50 [1]: 68 nM

B6: S2P04 (Abu)-5 (NH2-ZTVXI-NH2, Z is aminobutyric acid) (peptide)
peptide: H-[Abu]TV[thBuK]I-NH2
SMILES: CCCC(=S)NCCCC[C@H](NC(=O)[C@@H](NC(=O)[C@@H](NC(=O)[C@@H](N)CC)[C@@H](C)O)C(C)C)C(=O)N[C@H](C(N)=O)[C@@H](C)CC
IC50 [1]: 119 nM

The next lines start with the values.

Kd [2]: 90 nM
Binder: SK(Crotonyl(E))DIWCF (also: 5-FAM conjugated, site not given here) [5-FAM-conjugated 7CrKEnl2]

fold by which SIRT2 is inhibited more potently than SIRT3 [3]: 152 fold | fold more potent than TB (sirtuin inhibition) [3]: ≥ 33 fold | fold more potent than TB (sirtuin inhibition) [4]: ≥ 33 fold | fold by which SIRT2 is inhibited more potently than SIRT1 [5]: 2.7 fold | fold more potent than TB (sirtuin inhibition) [5]: ≥ 33 fold | IC50 [1]: 92 nM
B2: S2P04 (NH2-TCTVXIG-NH2), synthesized with N^ε-thiobutyryl-lysine (thBuK) in place of BuK (peptide)
peptide: H-TCTV[thBuK]IG-NH2
SMILES: CCCC(=S)NCCCC[C@H](NC(=O)[C@@H](NC(=O)[C@@H](NC(=O)[C@H](CS)NC(=O)[C@@H](N)[C@@H](C)O)[C@@H](C)O)C(C)C)C(=O)N[C@H](C(=O)NCC(N)=O)[C@@H](C)CC

IC50 [1]: 191 nM
B3: Ac-S2P04-5 (Ac-CTVXI-NH2) (peptide)
peptide: Ac-CTV[thBuK]I-NH2
SMILES: CCCC(=S)NCCCC[C@H](NC(=O)[C@@H](NC(=O)[C@@H](NC(=O)[C@H](CS)NC(C)=O)[C@@H](C)O)C(C)C)C(=O)N[C@H](C(N)=O)[C@@H](C)CC

Kd [2]: 94 nM
Binder: DIWCFK(Crotonyl(E))G (also: 5-FAM conjugated, site not given here) [5-FAM-conjugated 7CrKEnl1]
